Test results from article PMC4732737.

Experiments:
[1] = target: AviB-tagged BG505 SOSIP.v4.2 trimer (HIV-1); experiment: BLI
[2] = target: AviB-tagged BG505 SOSIP.664 A316W trimer (HIV-1); experiment: BLI

soluble CD4 (domain or fragment)
fold reduction of affinity against the wild-type trimer [1]: 2.4 fold
fold reduction of affinity against the wild-type trimer [2]: 2.4 fold
